Data as given in US20210054095A1 (PHILOGEN S P A, published 2021).
Residue numbers refer to the chain shown, from its start.

Key:
[1] = biological target: carbonic anhydrase IX (CAIX) as expressed on SKRC52 human renal cell carcinoma cells, SKRC52 tumour sections … (human, UniProt Q16790 38-459); assay: immunofluorescence on frozen human stomach sections, FITC-labelled hIgG1 at 2 ug/ml
Experimental: Frozen sections of healthy human stomach tissue were stained as follows. Briefly, FITC-labeled antibody XE114 in human IgG1 (hIgG1) format was added at a final concentration of 2 μg/ml to acetone-fixed sections.
Counterstaining for cell nuclei was performed with DAPI. Tissue sections were mounted with fluorescent mounting medium and analysed using an Axioskop2 microscope with a 10× objective.

[2] = biological target: CAIX coated on a CM5 chip (Example 2) (human, UniProt Q16790 38-414); assay: SPR (BIAcore X100), CAIX coated CM5 chip, scFv injected as serial dilutions
Experimental: Affinity measurements were performed by surface plasmon resonance using BIAcore X100 instrument using a CAIX coated CM5 chip. The XE114 antibody without glycosylation motif in scFv format was injected as serial-dilutions, in a concentration range from […] to 15.7 nM. Regeneration of the chip was performed by HCl 10 mM.
The BIAcore analysis confirmed that the XE114 antibody without glycosylation motif in scFv format was capable of binding to CAIX.

[3] = biological target: recombinant His-tagged CAIX (amino acids 120-397 of the full-length protein; SEQ ID NO: 15) (human, UniProt Q16790 120-397); assay: SPR (Biacore 3000), His-tagged CAIX on CM5 chip, monomeric scFv injected at 660 nM
Experimental: Affinity measurements were performed on a Biacore 3000 instrument. 2100 RU recombinant His-tagged CAIX (SEQ ID NO: 15) were immobilized onto a CM5 chip. Peaks representing the monomeric fractions of the scFv were collected by size-exclusion chromatography on a Superdex 75 HR 10/30 column. The monomeric fraction was injected at a flow rate of 10 μl min⁻¹ over the antigen-coated chip at […] different concentrations, 660 nM, 160 nM and 80 nM. All kinetic data were evaluated using the BIAevaluation 4.1 software.

B1: XE114 antibody (with the glycosylation motif) in human IgG1 (hIgG1) format (antibody, V domains shown)
VH: EVQLLESGGGLVQPGGSLRLSCAASGFTFSSYAMSWVRQAPGKGLEWVSAIDGSGGSTYYADSVKGRFTISRDNSKNTLYLQMNSLRAEDTAVYYCVKGPPVFDYWGQGTLVTVSS
VL: SSELTQDPAVSVALGQTVRITCQGDSLRSYYASWYQQKPGQAPVLVIYGKNNRPSGIPDRFSGSSSGNTASLTITGAQAEDEADYYCNSSKWSWDPVVFGGGTKLTVLG
modifications: FITC-labelled (site and chain not stated)
notes: also called FITC-labeled antibody XE114; XE114 in IgG format
B1: binds [1].

B2: XE114 antibody without glycosylation motif in scFv format (scFv)
scFv: EVQLLESGGGLVQPGGSLRLSCAASGFTFSSYAMSWVRQAPGKGLEWVSAIDGSGGSTYYADSVKGRFTISRDNSKNTLYLQMNSLRAEDTAVYYCVKGPPVFDYWGQGTLVTVSSGGGGSGGGGSGGGGSSELTQDPAVSVALGQTVRITCQGDSLRSYYASWYQQKPGQAPVLVIYGKNNRPSGIPDRFSGSSSGNTASLTITGAQAEDEADYYCQSSKWSWDPVVFGGGTKLTVLG
notes: Expressed in CHO-S cells; also called XE114 w/o glycosylation motif
B2 gave a Kd [2] of 2.71 nM and a koff [2] of 0.000305 s⁻¹.

B3: anti-CAIX XE114 scFv antibody (with the glycosylation motif) (scFv)
scFv: B2 scFv with Q218N
notes: also called scFv XE114; XE114 single chain Fv
B3 showed a Kd [3] of 15 nM.
